Laboratory results as given in the nanobody polyreactivity screen of Harvey et al. (2022).

Experiment: yeast display, Sf9 membrane polyspecificity reagent, FACS + sequencing; frameworks hold sequencing errors
Summary of the method: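 Galactose-induced (36–48 hours) yeast carrying a synthetic nanobody display library were exposed to 10% biotinylated, detergent-solubilized Sf9 membrane reagent at 4 °C for 1 hour. FACS followed streptavidin microbead enrichment, using low and high (top ~1%) gates for expression (anti-HA) and reagent binding (streptavidin). Colony PCR, MiSeq 2 × 250 sequencing and CDR-length filtering followed. Labels for polyreactivity reflect the gate of origin.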

Sequence | polyreactivity (PSR sort gate)
QVQLVESGGGLVQAGGSLRLSCAASGGTFRVYAMGWYRQAPGKERELVAAITGRGGSTYYADSVKGRFTISRDNAKNTVYLQMNSLKPEETAVYYCAKDPVTTYYKYDYWGQGTQVTVSS | low polyreactivity
QDQLVESGGGLVQAGGSLRLSCAASGRTCGYYTMGWYRQAPGKERELVATISSDGTTNYADSVKGRFTISRDNAKNTVYLQMNSLKQEDTAGYYCNADFRLQYYYRIYDYWGQGTQVTVSS | low polyreactivity
QVQLVESGGGLVQAGGSLRLSCAASGFTFVRNAMGWYRQAPGKEREFVAAITWTGGSTSYADSVKGRFTISRDNAMITVYLQMNSLKPEDTAVYYCDAVGYGYGFEYWGQGTQVTVSA | high polyreactivity
QVQLVESGGGLDQAGGSLRLSCAASGRTFTGNAMGWYRQAPGKERELVAAISSRGSSTYYADSVKGRFTISRDNAKNTVYLQMNSLKPEDTAVYYCAAVWPRPKYVYESDYWGQGTQVTVSS | high polyreactivity
QVQLVESGGGLVQAGGSLRLSCAASGSIFLYYAMGWYRPAPGKDRELVAAIRRGGNTNYADSVKGRFTISRDNAKNTVYLQMNSLKPVDTAVYYCAAAQYSRYSRVPNYYAGTYYYWGQGTQVTVSS | low polyreactivity
QVQLVESGGGLVQAGGSLRLSCAASGFTFYGYAMGWYRQAPGKERELVAAITSGGSTNYADSVKGRFTISRDNAKNTVYLQMNSLKPEDTAVYYCAASPSYWYLYVNYSYDYWGQGTQVTVSS | high polyreactivity
QVQLVESGGGLVQAGGSLRLSCAASGSIFDSYTMAWYRQEPGKEREFVAAISRGGGSTYYADSVKGRFTISRDNAKNTVYLQMNSLKPEDTAVYYCAASSYLNSRFKFDYWGQGTQVTVSS | low polyreactivity
QVQLQESGGGLVQAGGSLRLSCAASGNIFDADIMGWYRQAPGKERELVASITDGGSTNYADSVKGRFTISRDNAKNTLYLQLISLYPDDTGVYYCAAIAYPDIPTYFDYDSDYFYWGQGTQVTVSS | high polyreactivity
QVQLVESGGGLDQARGSLRLSCAASGSTFKRKPLGWYRQATGKERELVAAITQSGGSTYYADSVKGRFTISRDNAKNTVYLLMYSLKPEDTSVYYCAASYLRGRRYEYWGQGTQVTVSS | high polyreactivity
QVQLQESGAALVQAGGSLRLSCAASGNIFVDAYMGWYRQAPGKERELVATIAPADSVKGRFTISRDNAKNTVYLQMNRLKPEDTAVYYCAAFTGYSSVFGFWGQGIQVTVSS | high polyreactivity
QVQLEESGGGLVQAGGSLRLSCAASGSIIAGYAMGWYRQAPGKERELVAAISQRGTSTYYADSVKGRFTISRDNAKNTVYLQMNSLKPEDTAVYYCAARVVSRMDYWGQGTQVTVSS | high polyreactivity
QVQLVESGGRLVQAGGSLRLSSAASGSTFSFYVMRWYRQAPGKERELVAAISWSSVGTYSADSVKGRFTISRDNAKNTVYLQMNSLKPEDTAVYYCAADSYRRVAKHGYWGQGTQVTVSS | high polyreactivity
QVQLVESGGGLDQAGGSLRLSCAASGSTFARNVMGWYRLAPGKERELVAAISWRGGRTYYADSVKGRFTISRDNAKNTVYLQMNSLKPEDTAVYYCAAGRSFRGSYWYEYWGQGTQVTVSS | high polyreactivity
QVQLVESGGGLVQAGGSLRLSCAASGRIFQGNAMGWYRQAPGKERELVAAITTSGGSTYYADSVKGRFTISRDNAKNTVYLQMNSLKPEDTAVYYCNVDPRKRSYDYWGQGTQVTVSS | high polyreactivity
QVQLVESGGGLDQARGSLRLSCAASGSILRYYTMGWYRQAHGKERELVAAISYRGSSTYYADSVKGRFTISRDNAKNTVYLQMNSLKPEDTAVYYCARGGYYGYDYWGQGTQVTLSS | high polyreactivity
QVQLVESGGGLVQAGGSLRLSCAASGSTFSKYAMGWYRQAPGKERELVATISSTGSTNYADSVKGRFTISRDNEKNTVYLQMNSLKPEDTAVYDCNAGRRGRPYYKYYYWGQGTQVTVSS | high polyreactivity
QVHLVESGGGLVQAGGSLRLSCAASGIIFRHKAMLWYRQAPGKERELVAAISSGGNTYYADSVKGRFTISRDNAKNTVYLLMNSLKPEDTAVYYFADDVQDRYHRAWYDSWGQGRQVTVSS | low polyreactivity
QVQLVESGGGLVQAGGSLRLSCAASGSTFSLYAMGWYRQAPGKERELVADINSGGGTYYADSVKGRFTISRDNAKNTVYLQMNSLKPEDTAVYYCTAASSWSYFWYDYWGQGTQVTVSS | high polyreactivity
QGQLVESGGGLVQAGGSLRLSCAATGFTFRYYAMGWYRHAPGKERELVATITRGGSTNYADSVKGRFTISRDNAKNTVYLQMNSLKPEDTAVYYCATGKNYWRGYEYWGQGTQVTVSS | low polyreactivity
QVQLVESGGGLVQAGGSLRLSCAASGFSFYNYAMGWYRQAPGKERELVAAISWSGGSTHYADSVKGRFTISRDNAKNTVYLQMNSLKPEDTAVYYCAKVGVLGYYTYYYWGQGTQVTVSS | low polyreactivity
QDQLVESGGGLVQAGGSLRLSCAASGFTFYLYTMGSYRQAPGKERELVATITSDGGTNYADSVKGRFTISRDNAKNTVYLQMNSLKPEDTAVYFCNAASRRGSRKQAKYDYWGQGTQVTVSS | low polyreactivity
QVQLVESWGGLVQAGGSLRLSCAASGSTFAQNTMGWYRQAPGKERELVATISDGGGSTYYADSVKGRFTISRDNAKNTVYLQMNSLKPEDTAVYYCNTDRFWPSYYWGQGTQVTVSS | low polyreactivity

Sequence | polyreactivity (PSR sort gate)
QVQLVESGAGLVQAGGSLRLSCAASGSIFEYYAMGWYRQAPGKERELVAAISSGGPTYYADSVKGRFTISRDNAKNTVYLQMNSLKPEDTAVYYCNAALRYPDYDYWGQGTQVTVSS | low polyreactivity
QVQLVESGGGLVQAGGSLRLSCAASGFIFRAYTMGWYRQAPGKERELVAAITSSGGRTYYADSVKGRFTISRDNAKNTVYLQMNSLKPEDTAVYYCATVYAKWKQFDYWGQGTQVTVSS | high polyreactivity
QVQLVESGGGLVQAGGSLRLSCAASGLTFGNNAMGWYRQAPGKERELVAAISSDGTTYYADSVKGRFTISRDNAKNTVYLQMNSLKPEDTAVYYCNAAAEISSFDYDYWGQGTQVTVSS | low polyreactivity
QVQLVESGGGLVQAGGSLRLSCAASGIIFRSYAMGWYRQAPGKERELVAGISRRGGSTYYADSVKGRFTISRDNAKNTVYLQMNSLKPEDTAVYYCAKEVAYKPTGYDYWGQGTQVTVSS | high polyreactivity
QVQLVESGGGLVQAGGSLRLSCAASGRIFVSNAMGWYRQAPGKERELVAAISKSGGRTYYADSVKGRFTISRDNAKNTVYLQMNSLKPEDTAVYYCNAVISLPGNKYDYWGQGTQVTVSS | high polyreactivity
QVQLVQSGGGLVQAVGSLRLICADSGSIFVPNAMGWYRQALGKERELVAAITYSGVDTYYADSVKGRFTISRDNAKNSVYLQMNSLKPEDTAVYYCAADNGRVGYDYWGLGTQVTVSS | low polyreactivity
QVQHVESGGGLVQAGGSLRLSCAASGSTFYRYTMGWYRQPPGKEREFVATITGRGGSTYADSVKGRFTISRDNAKNTVYLQMNSLKPEDTAVYYCAKRQTYREYDYWGQGTQVTVSS | low polyreactivity
QVQLVESGGGLVQAGGSLRLSCAASGITFYEYAMGWYRQAPGKERELVAAITSGGTTNYADSVKGRFTISRDNAKNTVYLQMNSLKPEDTAVYYCAKDEGEGYDYWGQGTQVTVSS | low polyreactivity
QVQLVESGGGLVQAGGSLRLSCAASGRTFRSYAMGWYRQAPGKERELVAAISRGGRTNYADSVKGRFTISRDNAKNTVYLQMNSLKPEDTAVYYCAARLPYLGGYDYWGQGTQVTVSS | high polyreactivity
QVQIVESGGGLVQAGGSLRLSCAASVIIFSKYGMGWYRQAPGKERELVAAISSSGGTTYYADSVKGRFTISRDNAKNTVYLQMNSLKPEDTAVYYCAATGRRRTYSEYEYWGQGTQVTVSS | high polyreactivity
QVQHVESGGGLVQAGGSLRLSSAASGRTFYYNAMGWYRQAPGKERELVASITITDSTNYADSVKGRFTISRDNAKNTVYLQMNSLKPEDTAVYYCAKRGWGTSFYLSDYWGQGTQVTVSS | low polyreactivity
QVQLVESGGGLVQAGGSLRLSCAASGFTFAYNAMGWYRPAPGKERELVAAITTRTGTTYYADSVKGRFTISRDNAKNTVYLQMNSLKPEDTAVYYCAKRGYYRYYYWGQGTLVTVSS | high polyreactivity
QVQLVESGGGLGQAGGSLRLSCAASGSTFEGYAMGWYRQAPGKERELVAAISSSGGRTYYADSVKGRFTISRDNAKNTVYLQMNSLKPEDTAVYYCAADVSTAAVRSDSWGQGTQVTVSS | low polyreactivity
QVQLVESGGGLVQEGGSLRLSCAASGGTFYNYAMGWYRQAPGKERELVAAITYSGGITYYADSVKGRFTISRDNAKNTVYLQMNRLKPEDTAVYYCAADGYGNYDQYGYWGQGTQVTVSS | low polyreactivity
QVQLVESGGGLVQAGGSLRLSCAASGFIFSYYAMGWYRQAPVKERELVAAISSSGGTTYADSVKGRFTISRDNAKNTFYLQMNSLKPEDTAVYYCARVQYWFYKPMYYWGQGTQVTVSS | high polyreactivity
QVQLVESGGGLVQAGGSLRLSCAASGLTFPHNAMGWYRQAPGKERELVAAITSSGGSTYYADSVKGRFTISRDNAKNTVYIQMNSLKPEDTAVYYCAAKRKPRPSYRYGYWGQGTQVTVSS | high polyreactivity
QVQHVESGGGLVQAGGSLRLSCAASGSTQTRNPMGWYRKAPGKERELVAAITQRGGSTYYADSVKGRFTISRDNAKNTVYLQMNSLKPEDTAVYYCAKVPSVKYRSIWVLPEYGWGQGTQVTVSS | low polyreactivity
QVQLVESGGGLVQAGGSLRLSCAASGRNFRWYAMGWYRQAPGKERELVAAITRGDITNYADSVKGRFTISRDNAKKTVYLQMNSLKPEDTAVYYCNAQWYDIYDYWGQGTQVTVSS | high polyreactivity
QVQLVESGGGLVQAGGSLRLSCAASGRIFYYYAMGWYRQAPGKERELVAAIRWSGGSTYYADSVKGRFTISRDNEKNTVYLQMNSLKPEDTAVYYCAADSRTNGYDYWGQGTQVTVSS | high polyreactivity
QVQLVESGGGLVQAGGSLRLSCAASGRIFTYYGMGWYRQAPGKERELVAAISWSGGSTYYADSVKGRFTISRDNAKNTVYLQMNSLKPEDTAVYYCNAASRYGGDYWGQGTQVTVSS | high polyreactivity
QVQLVESGGGLVQAGGSLRLSCAASGSIFAHYAMGWYRQAPGKERELVAAISKNAGSTYYADSVKGRFTISRDNAKNTVYLQMNSLKPEDTAVYYCATGYQKPYSSDYWGQGTQVTVSS | high polyreactivity
